The values below come from the supplement of paper PMC9112550, “Optimization of the antimicrobial peptide Bac7 by deep mutational scanning” (BMC Biology, 2022).
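Also: peptides expressed intracellularly from a pBAD plasmid library in pooled LB shake-flask culture, induced with 0.3% L-arabinose, DNA abundance read by NGS, three biological replicates, DESeq2 with apeglm shrinkage.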

This data set concerns Escherichia coli TOP10. Put plainly: shrunken log2 fold change of peptide-encoding DNA abundance (4.5 h post-induction vs induction); higher = less antimicrobial activity (less host growth inhibition). The note with it: time post-induction: 4.5 h; library: site-saturation at positions 5, 18, 19, 20.
In the case of RRIRQRPPRLPRPRPRPEHDPRP, the “shrunken log2 fold change” value was -0.0684.

Regarding RRIRLRPPRLPRPRPRPAKWPRP, the “shrunken log2 fold change” value worked out at 0.388.

As to RRIRERPPRLPRPRPRPIDGPRP, the “shrunken log2 fold change” value came out at 0.0442.

Turning to RRIRMRPPRLPRPRPRPDSEPRP, the “shrunken log2 fold change” value was 1.82.

For the sequence RRIRLRPPRLPRPRPRPDHFPRP, the “shrunken log2 fold change” value was 0.0304.

On to RRIRPRPPRLPRPRPRPDEGPRP, for which the “shrunken log2 fold change” value was -0.188.

As to RRIRWRPPRLPRPRPRPYHMPRP, the “shrunken log2 fold change” value was -0.591.

For RRIRMRPPRLPRPRPRPIRHPRP, the “shrunken log2 fold change” value came out at 0.017.

As for RRIRMRPPRLPRPRPRPLDEPRP, the “shrunken log2 fold change” value stood at 0.0492.

On to RRIRFRPPRLPRPRPRPQSWPRP, for which the “shrunken log2 fold change” value is -0.0287.

As to RRIRCRPPRLPRPRPRPRTKPRP, the “shrunken log2 fold change” value turned out to be 0.246.

As for RRIRKRPPRLPRPRPRPATYPRP, the “shrunken log2 fold change” value was 0.0782.

As for RRIRNRPPRLPRPRPRPDVAPRP, the “shrunken log2 fold change” value came out at 0.285.

As to RRIRTRPPRLPRPRPRPWSFPRP, the “shrunken log2 fold change” value was -0.0893.

For the sequence RRIRNRPPRLPRPRPRPQATPRP, the “shrunken log2 fold change” value is 0.991.

On to RRIRIRPPRLPRPRPRPHYKPRP, for which the “shrunken log2 fold change” value was -0.756.

Consider RRIRGRPPRLPRPRPRPPKSPRP, for which the “shrunken log2 fold change” value came to 0.616.

RRIRIRPPRLPRPRPRPRQFPRP: the “shrunken log2 fold change” value is -0.112.

As for RRIRARPPRLPRPRPRPTARPRP, the “shrunken log2 fold change” value was 0.874.

RRIRPRPPRLPRPRPRPMHNPRP: the “shrunken log2 fold change” value was -0.202.

In the case of RRIRCRPPRLPRPRPRPNFQPRP, the “shrunken log2 fold change” value was -0.438.

For the sequence RRIRCRPPRLPRPRPRPEGNPRP, the “shrunken log2 fold change” value was -0.0225.

For the sequence RRIRVRPPRLPRPRPRPACDPRP, the “shrunken log2 fold change” value was determined as 0.284.

On to RRIRCRPPRLPRPRPRPTHTPRP, for which the “shrunken log2 fold change” value was found to be 0.388.

For the sequence RRIRARPPRLPRPRPRPEYWPRP, the “shrunken log2 fold change” value worked out at 0.515.

Consider RRIRARPPRLPRPRPRPCKGPRP, for which the “shrunken log2 fold change” value was -0.0784.

Consider RRIRYRPPRLPRPRPRPMSWPRP, for which the “shrunken log2 fold change” value was -0.0422.

In the case of RRIRARPPRLPRPRPRPNESPRP, the “shrunken log2 fold change” value was determined as 0.102.

In the case of RRIRERPPRLPRPRPRPLYQPRP, the “shrunken log2 fold change” value is -0.176.

Take RRIRWRPPRLPRPRPRPPVNPRP: the “shrunken log2 fold change” value worked out at 0.13.

In the case of RRIRDRPPRLPRPRPRPKICPRP, the “shrunken log2 fold change” value was found to be 0.0258.

Take RRIRKRPPRLPRPRPRPFCQPRP: the “shrunken log2 fold change” value worked out at 0.212.

As for RRIRIRPPRLPRPRPRPAWLPRP, the “shrunken log2 fold change” value came out at 0.272.

On to RRIRWRPPRLPRPRPRPRCKPRP, for which the “shrunken log2 fold change” value was found to be 0.33.

With RRIRRRPPRLPRPRPRPSTCPRP, the “shrunken log2 fold change” value was 0.0254.

With RRIRCRPPRLPRPRPRPPWRPRP, the “shrunken log2 fold change” value is 0.751.

RRIRWRPPRLPRPRPRPPTIPRP: the “shrunken log2 fold change” value was -0.0126.

With RRIRYRPPRLPRPRPRPLWFPRP, the “shrunken log2 fold change” value was -0.494.

In the case of RRIRIRPPRLPRPRPRPLEHPRP, the “shrunken log2 fold change” value was -0.105.

Regarding RRIRTRPPRLPRPRPRPKTAPRP, the “shrunken log2 fold change” value is -0.0452.

RRIRTRPPRLPRPRPRPRHLPRP: the “shrunken log2 fold change” value was 0.318.

Regarding RRIRKRPPRLPRPRPRPAYWPRP, the “shrunken log2 fold change” value was 0.424.

Take RRIRARPPRLPRPRPRPTGYPRP: the “shrunken log2 fold change” value worked out at 0.191.

Regarding RRIRGRPPRLPRPRPRPTKWPRP, the “shrunken log2 fold change” value was determined as 0.262.

Consider RRIRPRPPRLPRPRPRPIWPPRP, for which the “shrunken log2 fold change” value turned out to be 0.302.

RRIRFRPPRLPRPRPRPDPYPRP: the “shrunken log2 fold change” value was -0.437.

On to RRIRMRPPRLPRPRPRPFNTPRP, for which the “shrunken log2 fold change” value is -0.0396.

In the case of RRIRERPPRLPRPRPRPHNYPRP, the “shrunken log2 fold change” value was -0.612.

As to RRIRMRPPRLPRPRPRPYNSPRP, the “shrunken log2 fold change” value was -0.22.

Regarding RRIRFRPPRLPRPRPRPFAWPRP, the “shrunken log2 fold change” value is -0.0558.
